Experimental data as given in article PMC2786004 (Biochemistry, 2009).

Target: the molecule itself
Assay: crystal structure

B1: Bacillus halodurans tRNA isopentenyltransferase MiaA (BH2366), full length (enzyme, UniProt Q9KAC3 1-314, looked up)
chain: MKEKLVAIVGPTAVGKTKTSVMLAKRLNGEVISGDSMQVYRGMDIGTAKITAEEMDGVPHHLIDIKDPSESFSVADFQDLATPLITEIHERGRLPFLVGGTGLYVNAVIHQFNLGDIRADEDYRHELEAFVNSYGVQALHDKLSKIDPKAAAAIHPNNYRRVIRALEIIKLTGKTVTEQARHEEETPSPYNLVMIGLTMERDVLYDRINRRVDQMVEEGLIDEAKKLYDRGIRDCQSVQAIGYKEMYDYLDGNVTLEEAIDTLKRNSRRYAKRQLTWFRNKANVTWFDMTDVDFDKKIMEIHNFIAGKLEEKSK
stoichiometry N: 2
